Results on 1 substance are retold here after article PMC3742519.

This test addresses subtilisin A (Bacillus licheniformis) (Bacillus licheniformis) (UniProt P00780). Nature of the test: enzyme inhibition kinetics (Lineweaver–Burk); substrate (AAPF) added to an equilibrium mixture of subtilisin A and rEs-DWD1; competitive inhibition, inhibitor at 0, 2.5 and 5 μM; 0.1 M Tris-HCl pH 8.0, 37 °C; p-nitroaniline read at 405 nm.
Sequence of UniProt P00780 (P00780 106-379): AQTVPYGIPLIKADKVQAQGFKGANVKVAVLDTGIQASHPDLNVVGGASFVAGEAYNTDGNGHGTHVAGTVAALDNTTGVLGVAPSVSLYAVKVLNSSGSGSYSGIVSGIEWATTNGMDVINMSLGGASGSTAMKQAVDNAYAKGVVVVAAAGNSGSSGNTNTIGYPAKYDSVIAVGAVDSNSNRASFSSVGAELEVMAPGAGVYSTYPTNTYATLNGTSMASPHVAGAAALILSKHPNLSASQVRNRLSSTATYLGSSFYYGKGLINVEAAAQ

Broadly, the Ki is the dissociation constant of the complex between target and ligand, obtained from inhibition or displacement. Take “recombinant Es-DWD1 (double WAP domain-containing protein from Eriocheir sinensis) (natural protein)”: the inhibitory constant (Ki) amounted to 4.12 nM.
